Laboratory results as given in patent US20260297183 (published 2026).

Assays:
huZIP12-ECD-GST [1] = target: T1, huZIP12-ECD-GST (human, UniProt Q504Y0); assay: SPR, extended dissociation re-test
huZIP12-ECD-GST [2] = target: T1, huZIP12-ECD-GST; assay: SPR

Row | Binder | Kd (huZIP12-ECD-GST [1]) | Kd (huZIP12-ECD-GST [2])
1 | H3_W99H_VL-par (antibody, V domains shown) VH: QVQLVESGGGVVQPGRSLRLSCAASGFTFSDYGMHWVRQAPGKGLEWVAYISSGGTTIYYADTVKGRFTISRDNSKNTLYLQMNSLRAEDTAVYYCARHTNLYAMDYWGQGTTVTVSS VL: DIVLTQSPDSLAVSLGERATINCRASKSVSTSGYSYMHWYQQKPGQPPKFLIYLASNLESGVPDRFSGSGSGTDFTLTISSLQAEDVAVYYCQHSREVPYTFGGGTKVEIKR | ~0.3 nM | ~0.5 nM
2 | H3_W99H_L2 (antibody, V domains shown) VH: QVQLVESGGGVVQPGRSLRLSCAASGFTFSDYGMHWVRQAPGKGLEWVAYISSGGTTIYYADTVKGRFTISRDNSKNTLYLQMNSLRAEDTAVYYCARHTNLYAMDYWGQGTTVTVSS VL: DIVLTQSPDSLAVSLGERATINCRASKSVSTSGYSYMHWYQQKPGQPPKFLIYLASNKESGVPDRFSGSGSGTDFTLTISSLQAEDVAVYYCQHSREVPYTFGGGTKVEIKR | ~0.3 nM | ~0.5 nM

Continued by falling Kd (huZIP12-ECD-GST [1]), values first:

Row | Kd (huZIP12-ECD-GST [1]) | Kd (huZIP12-ECD-GST [2]) | Binder
3 | 1.1 nM | – | 51B12 parent (51B12_VH_VL-par) (antibody, V domains shown) VH: QVQLVESGGGVVQPGRSLRLSCAASGFTFSDYGMHWVRQAPGKGLEWVAYISSGGTTIYYADTVKGRFTISRDNSKNTLYLQMNSLRAEDTAVYYCARWTNLYAMDYWGQGTTVTVSS VL: DIVLTQSPDSLAVSLGERATINCRASKSVSTSGYSYMHWYQQKPGQPPKFLIYLASNLESGVPDRFSGSGSGTDFTLTISSLQAEDVAVYYCQHSREVPYTFGGGTKVEIKR
4 | ~0.3 nM | – | H3_W99H_L1 (51B12_W99H_L1) (antibody, V domains shown) VH: QVQLVESGGGVVQPGRSLRLSCAASGFTFSDYGMHWVRQAPGKGLEWVAYISSGGTTIYYADTVKGRFTISRDNSKNTLYLQMNSLRAEDTAVYYCARHTNLYAMDYWGQGTTVTVSS VL: DIVLTQSPDSLAVSLGERATINCRASKSVSTQGYSYMHWYQQKPGQPPKFLIYLASNLESGVPDRFSGSGSGTDFTLTISSLQAEDVAVYYCQHSREVPYTFGGGTKVEIKR
